Measurements published in article PMC5834517.

Experiments:
[1] = target: Mut FcγRIIIa (non-glycosylated); test: SPR; Biacore T200; FcγRIIIa (WT or Mut) captured on a Ni2+-loaded NTA sensor chip at 350 RU; Rituximab fractions injected as analyte at 30 μL/min; PBS with 0.005% Tween-20; global fit, 1:1 Langmuir model; KD = koff/kon
[2] = target: WT FcγRIIIa (glycosylated, expressed by HEK293 cells) (UniProt P08637)
[3] = target: Mut FcγRIIIa (engineered, non-glycosylated Fcγ receptor IIIa) (UniProt P08637); test: SPR; van't Hoff analysis: temperature dependence of KD; Mut FcγRIIIa on the surface, antibody fractions as analyte

Substance | Kd [1] | EC50 of FcγRIIIa activation (NFAT-driven luciferase in Jurkat/FcγRIIIa/NFAT-Luc cells with Daudi cells; corresponds to ADCC) [2] | dH [3]
Rituximab, peak 2 of the FcγRIIIa-immobilized column (antibody) | 1010 nM | – | –
Rituximab fraction Peak 2 of the FcγRIIIa column (antibody) | – | 0.19 µg/mL | -13.3 kcal/mol
Rituximab, peak 3 of the FcγRIIIa-immobilized column (antibody) | 701 nM | – | –
Rituximab fraction Peak 3 of the FcγRIIIa column (antibody) | – | 0.05 µg/mL | -13.1 kcal/mol
Rituximab fraction Peak 1 of the FcγRIIIa column (antibody) | – | 0.2 µg/mL | -13.3 kcal/mol
Rituximab, peak 1 of the FcγRIIIa-immobilized column (antibody) | 1490 nM | – | –
Rituximab (Roche), before separation (antibody) | – | 0.13 µg/mL | –
